± gives the uncertainty stated by the source.
Assay: self-splicing fitness, log relative to wild type (ln ratio); higher = more splicing; Tetrahymena group I intron in knt gene, E. coli kanamycin selection, DiMSum; sequences stand for … in CUCUCU…GGAGGGAAAAGUUAUCAGGCAUGCACCUGGUAGCUAGUCUUUAAACCAAUAGAUUGCAUCGGUUUAAAAGGCAAGACCGUCAAAUUGCGGGAAAGGGGUCAACAGCCGUUCAGUACCAAGUCUCAGGGGAAACUUUGAGAUGGCCUUGCAAAGGGUAUGGUAAUAAGCUGACGGACAUGGUCCUAACCACGCAGCCAAGUCCUAAGUCAACAGAUCUUCUGUUGAUAUGGAUGCAGUUCACAGACUAAAUGUCGGUCGGGGAAGAUGUAUUCUUCUCAUAAGAUAUAGUCGGACCUCUCCUUAAUGGGAGCUAGCGGAUGAAGUGAUGCAACACUGGAGCCGCUGGGAACUAAUUUGUAUGCGAAAGUAUAUUGAUUAGUUUUGGAGUACUCGUGGUCG
How it was run: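 Colonies from six replicate transformations of E. coli BL21(DE3) were pooled and amplicon-sequenced on an Illumina HiSeq 2500. The library placed an intron with all eight P1ex-region nucleotides randomised inside the knt kanamycin-resistance gene on pET-22b(+), and cells grew overnight at 37°C or 30°C on LB agar with or without 25 μg/mL kanamycin (plus 100 μg/mL carbenicillin, 50 μM IPTG, 0.2% rhamnose). Fitness is the DiMSum error-weighted combination of wild-type-normalised replicate fold changes, kanamycin versus none.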

Sequence | self-splicing fitness (ln) (30 °C) | self-splicing fitness (ln) (37 °C)
UGCCAGCAAUAUUACGAGUU | -2.53 ± 0.17 | -0.56 ± 0.14
UUGAAGCAAUAUUACGUGAG | -0.592 ± 0.067 | -0.805 ± 0.093
UAGUAGCAAUAUUACGAGGU | -2.28 ± 0.36 | –
UCAGAGCAAUAUUACGUGGU | -4.35 ± 0.39 | -1.78 ± 0.22
GUUAAGCAAUAUUACGUGGU | -2.79 ± 0.15 | -2.35 ± 0.19
AAUAAGCAAUAUUACGUACU | 0.573 ± 0.1 | -0.654 ± 0.095
AUCUAGCAAUAUUACGCAAA | -2.59 ± 0.29 | -3.24 ± 0.39
ACAUAGCAAUAUUACGGCAU | -1.06 ± 0.072 | -0.486 ± 0.079
AAGUAGCAAUAUUACGGUGC | – | -2.76 ± 0.32
AGCCAGCAAUAUUACGCAGG | -3.44 ± 0.14 | -2.62 ± 0.18
UGAGAGCAAUAUUACGCUAC | -2.4 ± 0.49 | –
AACCAGCAAUAUUACGCGAA | -1.11 ± 0.06 | -0.99 ± 0.076
GUAGAGCAAUAUUACGUAGG | -3.28 ± 0.17 | -1.96 ± 0.17
UGUAAGCAAUAUUACGAAGG | -2.14 ± 0.15 | -1.92 ± 0.25
AGACAGCAAUAUUACGUAGC | -2.07 ± 0.19 | -2.14 ± 0.23
CCUGAGCAAUAUUACGGCAG | -2.92 ± 0.34 | -0.802 ± 0.17
AACAAGCAAUAUUACGACCA | -0.617 ± 0.086 | -0.382 ± 0.12
CAUGAGCAAUAUUACGGGCA | -2.43 ± 0.18 | -2.21 ± 0.28
AGUAAGCAAUAUUACGCUUA | -3.07 ± 0.16 | -1.44 ± 0.15
CGAAAGCAAUAUUACGACGG | 0.0482 ± 0.089 | 0.569 ± 0.12

Sequence | self-splicing fitness (ln) (30 °C) | self-splicing fitness (ln) (37 °C)
UGCUAGCAAUAUUACGAACG | -0.171 ± 0.097 | 0.803 ± 0.12
UUAAAGCAAUAUUACGUUAU | -2.14 ± 0.092 | -1.23 ± 0.11
CUGGAGCAAUAUUACGACUU | -3.44 ± 0.38 | -2.38 ± 0.39
GACGAGCAAUAUUACGAUUC | -1.39 ± 0.11 | -1.47 ± 0.17
GCAGAGCAAUAUUACGAGUA | -3.23 ± 0.5 | -1.35 ± 0.43
UAGGAGCAAUAUUACGACGG | -2.88 ± 0.13 | -0.471 ± 0.12
UUCUAGCAAUAUUACGUAGC | – | -2.19 ± 0.31
CUUUAGCAAUAUUACGCAUU | -4.72 ± 0.31 | -3.51 ± 0.23
CGUCAGCAAUAUUACGGCGC | -3.38 ± 0.37 | -1.3 ± 0.35
UUGCAGCAAUAUUACGAGGA | -2.08 ± 0.18 | -0.954 ± 0.14
CACAAGCAAUAUUACGCGAG | -1.89 ± 0.092 | -0.699 ± 0.091
CCCAAGCAAUAUUACGAUCA | -3.67 ± 0.26 | -2.57 ± 0.16
UGGAAGCAAUAUUACGCCGA | -1.53 ± 0.26 | -0.201 ± 0.27
UCCGAGCAAUAUUACGGUCU | -2.4 ± 0.15 | -1.58 ± 0.13
UGAAAGCAAUAUUACGCCUA | 0.122 ± 0.093 | 0.207 ± 0.098
AAUCAGCAAUAUUACGGGGG | -1.11 ± 0.1 | -1.66 ± 0.13
AGAUAGCAAUAUUACGUCAA | -1.15 ± 0.09 | -1.03 ± 0.1
GAUCAGCAAUAUUACGAUAU | -0.637 ± 0.08 | 0.658 ± 0.11
CAUUAGCAAUAUUACGUUCA | -2.33 ± 0.2 | -2.35 ± 0.24

From the supplement of paper PMC7877785
